Source: patent CN116472284A

Biological target: SARS-CoV-2 spike on ZsGreen SARS-CoV-2-pseudotyped lentivirus (SARS-CoV-2) (UniProt P0DTC2)
Test: cell-based or functional assay

Nb6-tri (trivalent Nb6 with two 20 amino acid linkers) (VHH)
IC50, inhibition of SARS-CoV-2 pseudotyped lentivirus infection: 1.2 nM | fold gain of inhibitory activity against monovalent Nb6, pseudovirus: 2000 fold
